For 1 substance, Maximum mean fluorescence intensity, Maximum fluorescence value and EC50, activation activity for Jurkat cell results are on record in patent publication US20240343811A1.

Assay [1] has as its target CD16 on primary human NK cells (human) (UniProt P08637). The assay is described as follows: FACS on human NK cells.
For assay [2], the target named is human CD16a (158V), full length, on cells (human) (UniProt P08637). Put plainly: cell-based or functional assay.
The target in assay [3] is cynomolgus monkey CD16, full length, on FlpinCHO cells (cynomolgus monkey) (UniProt Q8SPW2). The assay is described as follows: FACS on FlpinCHO cells.
Assay [4] addresses human CD16a (158F), full length, on FlpinCHO cells (human) (UniProt P08637). Put plainly: FACS on FlpinCHO cells.
The target in assay [5] is human CD16a (158V), full length, on cells (human) (UniProt P08637). The assay is described as follows: FACS on FlpinCHO cells.
In assay [6] the target is human CD16b (NA1), full length, on FlpinCHO cells (human) (UniProt O75015). The assay is described as follows: FACS on FlpinCHO cells.
Assay [7] addresses human CD16b (NA2), full length, on FlpinCHO cells (human) (UniProt O75015). Put plainly: FACS on FlpinCHO cells.
Assay [8] addresses human CD16a (158V), full length, on cells (human) (UniProt P08637). Put plainly: cell-based or functional assay. The source holds these as a separate data set.
For assay [9] the target is unchanged. The assay is described as follows: FACS, biotinylated antibody. (In flow cytometry, cells or beads pass a laser one at a time.)
Assay [10] has the same target. Put plainly: FACS, biotinylated antibody, +10 mg/mL human immunoglobulin.

Where two headings read alike, the source gives them in different places.

Chain of human CD16a (158V), full length, on cells (human) (P08637 17-254 F176V limits assumed): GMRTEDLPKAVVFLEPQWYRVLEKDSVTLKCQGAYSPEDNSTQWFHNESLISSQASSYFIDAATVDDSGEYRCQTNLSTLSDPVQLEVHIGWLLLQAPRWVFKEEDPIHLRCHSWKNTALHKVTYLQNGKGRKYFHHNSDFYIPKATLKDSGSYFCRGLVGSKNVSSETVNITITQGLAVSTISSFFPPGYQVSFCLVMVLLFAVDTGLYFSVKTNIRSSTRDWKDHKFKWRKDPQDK
Chain of human CD16b (NA1), full length, on FlpinCHO cells (human) (O75015 other isoform, or with tags, fused parts or gaps limits assumed): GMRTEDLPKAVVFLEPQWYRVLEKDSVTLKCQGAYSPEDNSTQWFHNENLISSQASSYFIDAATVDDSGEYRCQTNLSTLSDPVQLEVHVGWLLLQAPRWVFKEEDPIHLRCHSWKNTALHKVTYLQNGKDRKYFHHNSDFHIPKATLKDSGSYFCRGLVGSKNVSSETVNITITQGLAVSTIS
Chain of CD16 on primary human NK cells (human) (P08637 17-254): as the sequence (P08637 17-254 F176V limits assumed) above, with V160F counted along it
Chain of human CD16a (158F), full length, on FlpinCHO cells (human) (P08637 17-254 limits assumed): as the sequence (P08637 17-254 F176V limits assumed) above, with V160F counted along it
Chain of human CD16b (NA2), full length, on FlpinCHO cells (human) (O75015 17-200 N65S limits assumed): as the sequence (O75015 other isoform, or with tags, fused parts or gaps limits assumed) above, with R20S, N49S, D66N, V90I counted along it
Chain of cynomolgus monkey CD16, full length, on FlpinCHO cells (cynomolgus monkey) (Q8SPW2 other isoform, or with tags, fused parts or gaps limits assumed): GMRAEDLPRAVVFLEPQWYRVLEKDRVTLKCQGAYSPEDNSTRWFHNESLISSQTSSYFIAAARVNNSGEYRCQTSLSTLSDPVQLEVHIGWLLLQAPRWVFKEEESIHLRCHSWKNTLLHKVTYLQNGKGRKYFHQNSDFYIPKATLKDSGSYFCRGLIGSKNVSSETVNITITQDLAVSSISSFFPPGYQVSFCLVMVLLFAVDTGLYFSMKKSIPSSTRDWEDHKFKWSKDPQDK

As to “NC, negative control antibody scFv-hFc (L234A, L235A and D265A) against chicken egg lysozyme (Fc fusion)”, the Maximum mean fluorescence intensity in assay [1] was found to be 238; in assay [3], 128; in assay [4], 216; in assay [5] it was 248; in [6], 189; in [7] it was 447. For the same substance, the Maximum mean fluorescence intensity worked out at 134 in [9] and 96 in assay [10]. In addition, the results for the Maximum fluorescence value in assay [2] and in assay [8] were 2070 and 6400, respectively. This substance also returned an EC50, activation activity for Jurkat cell in assay [8] of 0.019 µM.
